{"source": "patent US20190367620A1", "key": {"[1]": {"molecular_target": "human FGFR1 (His-tagged FGFR1b-IIIb or FGFR1b-IIIc; isoform not told at that place) (human) (UniProt P11362)", "assay": "ELISA on coated human FGFR1b (IIIb or IIIc not told)"}, "huFGFR1a-IIIc (human)": {"molecular_target": "huFGFR1a-IIIc (human) (UniProt P11362)", "sequence (P11362 22-376)": "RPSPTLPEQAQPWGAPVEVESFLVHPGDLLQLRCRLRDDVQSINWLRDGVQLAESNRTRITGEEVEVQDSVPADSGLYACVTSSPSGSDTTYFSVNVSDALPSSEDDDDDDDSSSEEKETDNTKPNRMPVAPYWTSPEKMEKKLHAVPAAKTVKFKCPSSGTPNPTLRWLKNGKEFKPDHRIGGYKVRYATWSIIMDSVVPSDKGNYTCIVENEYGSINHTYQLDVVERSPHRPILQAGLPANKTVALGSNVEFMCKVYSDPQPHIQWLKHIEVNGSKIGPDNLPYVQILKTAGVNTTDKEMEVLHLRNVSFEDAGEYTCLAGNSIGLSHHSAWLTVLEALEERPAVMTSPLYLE", "assay": "SPR (Biacore 4000), antibody captured, His-tagged FGFR1 injected; no unit in the table, nM inferred from paragraph 90"}, "[2]": {"molecular_target": "T1, FGFR1 D2 point mutant K63A (human), P11362", "T1 chain": "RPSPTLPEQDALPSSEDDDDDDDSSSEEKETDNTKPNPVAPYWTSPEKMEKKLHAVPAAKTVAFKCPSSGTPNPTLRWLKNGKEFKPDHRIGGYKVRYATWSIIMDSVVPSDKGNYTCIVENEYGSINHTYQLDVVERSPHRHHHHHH", "assay": "SPR as in Example 1.8", "settings": "remark: other sources report otherwise"}, "[3]": {"molecular_target": "T2, FGFR1 D2 point mutant T61A (human), P11362", "T2 chain": "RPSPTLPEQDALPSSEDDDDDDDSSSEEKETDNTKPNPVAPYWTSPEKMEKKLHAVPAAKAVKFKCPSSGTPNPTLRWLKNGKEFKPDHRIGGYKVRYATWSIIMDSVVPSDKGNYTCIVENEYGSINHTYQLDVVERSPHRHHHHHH", "assay": "SPR as in Example 1.8", "settings": "remark: other sources report otherwise"}, "[4]": {"molecular_target": "T3, FGFR1 D2 point mutant K60A (human), P11362", "T3 chain": "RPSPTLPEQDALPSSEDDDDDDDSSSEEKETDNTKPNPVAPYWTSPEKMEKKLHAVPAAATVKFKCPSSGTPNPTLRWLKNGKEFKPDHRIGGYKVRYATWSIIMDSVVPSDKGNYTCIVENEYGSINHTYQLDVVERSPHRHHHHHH", "assay": "SPR as in Example 1.8", "settings": "remark: other sources report otherwise"}, "[5]": {"molecular_target": "T4, FGFR1 D2 point mutant K95A (human), P11362", "T4 chain": "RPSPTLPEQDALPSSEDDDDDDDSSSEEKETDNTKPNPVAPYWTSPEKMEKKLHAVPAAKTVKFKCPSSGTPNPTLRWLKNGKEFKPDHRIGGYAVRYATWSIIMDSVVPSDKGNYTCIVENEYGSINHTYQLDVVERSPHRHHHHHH", "assay": "SPR as in Example 1.8", "settings": "remark: other sources report otherwise"}, "[6]": {"molecular_target": "T1, FGFR1 D2 point mutant K63A (human), …", "assay": "SPR; free energy change relative to wild-type D2", "settings": "remark: other sources report otherwise"}, "[7]": {"molecular_target": "T2, FGFR1 D2 point mutant T61A (human), …", "assay": "SPR; free energy change relative to wild-type D2", "settings": "remark: other sources report otherwise"}, "[8]": {"molecular_target": "T3, FGFR1 D2 point mutant K60A (human), …", "assay": "SPR; free energy change relative to wild-type D2", "settings": "remark: other sources report otherwise"}, "[9]": {"molecular_target": "T4, FGFR1 D2 point mutant K95A (human), …", "assay": "SPR; free energy change relative to wild-type D2", "settings": "remark: other sources report otherwise"}, "[10]": {"molecular_target": "human FGFR1 (His-tagged FGFR1b-IIIb or FGFR1b-IIIc; isoform not told at that place) (human) (UniProt P11362)", "assay": "ELISA on coated human FGFR1b (IIIb or IIIc not told), IgG1 format"}}}
{"binder": "mAb #D01 IgG1 (antibody, V domains shown) VH: QVQLQESGPGLVKPSGTLSLTCAVSGGSISSNNWWSWVRQPPGKGLEWIGEIYHSGSTSYNPSLKSRVTISVDKSKNQFSLKLSSVTAADTAVYYCARATDWFDHWGQGTLVTVSS VL: SYVLTQPPSVSVAPGQTARITCGGNNIGSESVHWYQQKPGQAPVLVVYDDSDRPSGIPERFSGSNSGNTATLTISRVEAGDEADYYCQVWDSTSDHRVFGGGTKLTVLG", "values": [{"measurement": "EC50", "setting": "[1]", "result": 0.015, "unit": "nM"}]}
{"binder": "mAb #A08 (antibody, V domains shown) VH: EVQLQESGPGLVKPSGTLSLTCAVSGGSISSNNWWSWVRQPPGKGLEWIGEIYHSGSTSYNPSLKSRVTISVDKSKNQFSLKLNSVTAADTAVYYCARGTDWFDPWGQGTLVTVSS VL: QAVLTQPPSVSVAPGQTARITCGGNNIGSESVHWYQQKPGQAPVLVVYDDSDRPSGIPERFSGSNSGNTATLTISRVEAGDEADYYCQVWDSTSDHRVFGGGTKLTVL", "values": [{"measurement": "Kd", "setting": "huFGFR1a-IIIc (human)", "result": 0.7, "unit": "nM"}, {"measurement": "Kd", "setting": "[2]", "result": 13.9, "unit": "nM"}, {"measurement": "Kd", "setting": "[3]", "result": 5.89, "unit": "nM"}, {"measurement": "Kd", "setting": "[4]", "result": 13.4, "unit": "nM"}, {"measurement": "Kd", "setting": "[5]", "result": 5.86, "unit": "nM"}, {"measurement": "ΔΔGmut", "setting": "[6]", "result": 2.53, "unit": "kcal/mol"}, {"measurement": "ΔΔGmut", "setting": "[7]", "result": 2.02, "unit": "kcal/mol"}, {"measurement": "ΔΔGmut", "setting": "[8]", "result": 2.51, "unit": "kcal/mol"}, {"measurement": "ΔΔGmut", "setting": "[9]", "result": 2.02, "unit": "kcal/mol"}]}
{"binder": "#A08 IgG1 (standard IgG1 built from the #A08 lead heavy and light chains) (antibody, V domains shown) VH: EVQLQESGPGLVKPSGTLSLTCAVSGGSISSNNWWSWVRQPPGKGLEWIGEIYHSGSTSYNPSLKSRVTISVDKSKNQFSLKLSSVTAADTAVYYCARGTDWFDPWGQGTLVTVSS VL: SYVLTQPPSVSVAPGQTARITCGGNNIGSESVHWYQQKPGQAPVLVVYDDSDRPSGIPERFSGSNSGNTATLTISRVEAGDEADYYCQVWDSTSDHRVFGGGTKLTVLG", "values": [{"measurement": "EC50", "setting": "[10]", "result": 0.008, "unit": "nM"}]}
